# Measured values reported in the nanobody polyreactivity screen of Harvey et al. (2022).
# Test: yeast display, Sf9 membrane polyspecificity reagent, FACS + sequencing; frameworks hold sequencing errors
# Outline: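 Galactose induction of a Saccharomyces cerevisiae BJ5465 synthetic nanobody display library ran 36–48 hours. The cells were then stained for 1 hour at 4 °C with 10% biotinylated, detergent-solubilized Sf9 membrane reagent, pulled down on streptavidin microbeads and FACS-sorted into low and high (top ~1%) gates on expression and reagent-binding fluorescence. Labels for polyreactivity follow the gate of origin.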
row,Sequence,polyreactivity (PSR sort gate)
1,QVQLVETGGGLVQAGGSLSLSCAASGSTFAYYAMGWYRQAPGKERELVAGITWTGGSTYYADSVKGRFTISRDNAKNTVYLQMNSLKPEDTAVYYCAVTYPYGYEYDHWGQGTQVTVSS,low polyreactivity
2,QVQLVETGGGLVQAGGSRRLICAATGRIFYWYAMGCYRQAPGKERELVATISSAGTTYYADSVKGRFTISRDNAKNTVYLQMNSLKQEDTAVYYCAVPRVGLHGIGSDYWGQGTQVTVSS,high polyreactivity
3,QVQLVETGGGLVQAGGTLRLSCAASGSTFNAYAKGWYIQAPGKERELVAVISSSGGRTYYADSEKGRFTISRDNAKNTVYLQLNSLKPEDTAVYYCNADVKYLYNHWGQGTQVTVSS,high polyreactivity
4,QVQLVETGGGLVQAGSSLRLSCAASGSTFIVYAMGWYRQAPGKEREFVAAITYRGGSSYYADSVKGRFTISRDNAKNTVYLQMNSLKPEDTAVYYCATETDRYPYIRRYQFPYYYWGQGTQVTVSS,high polyreactivity
5,QVQLVETGGRKVQPGGSLRLSCAASRRTFDHNAMGWYRQAPGKERELVAAITWSGGITDYADSVKRPFTISRDNAKNTVYLEMFSLKPEDTAVWGQGTQVSVSS,low polyreactivity
6,QVQLVETGRGLVQAGGSLRLSSAASGFTFGPYDMGWYIQAPGKERELVATIRSGDSTKYADSVKGRFTISRDNAKNTVYLQMNSLKPEDSAGYYCARDARASARRKRDDYWGQGTQVTVSS,low polyreactivity
7,QVQLVETVGCLVQAGGSLRLSSAASGRIFPYNAMGRYRQAPGKERELVAAIDWRDNTYYADSVKGRFTISRDNATNTVYLQMNSLIPEDTAVYDCNVDYTDYFLNKYDYWGQGTQVTVSS,low polyreactivity
8,QVQLVGSGGGLVQAGGSLRLSCAASGRTFDRNTMGWYRQAPGKERELVAAISSSGGSTYYADSVKGRFTISRDNAKNTVYLQMNSLKPEDTAVYYCAVLSRQYFRYGYDYWGQGTQVTVSS,high polyreactivity
9,QVQLVGSGGGLVQAGGSLRLSCAASGRTFWTNAMGWYRQAPGKERELVAAIRNSGGRTYYADSVKGRFTISRDNAKNTVYLQMNSLKPEDTAVYYCNARSSIRPRQGGYEHWGQGTQVTVSS,low polyreactivity
10,QVQLVKSGGGLVQAGGSLRLSCAASGFIIPEYTMGWYRPAPGKERELVAAISGSGGSTYYADSVKGRFTISRDNAKNTVYLQMNSLKPEDTAVYYCAASYAVSRYLQTYAHAHGYWGQGTQVTVSS,low polyreactivity
11,QVQLVKSGGGLVQAGGSLRLSCAASGFIIPEYTMGWYRQAPVKERELVAAISGSGGSTYYADSVKGRFTISRDNAKNTVYLQMNSLKPEDTAVYYCAASYAVSRYLQTYAHAHGYWGQGTQVTVSS,low polyreactivity
12,QVQLVKSGGGLVQAGGSLRLSCAASGSTFNKYTMGWYRQAPWKERELVAAITSGDSTYYADSVKGRFTISRDNAKNTVYLQMNSLKPEDTAVYYCAKSLRAYRHVIYGKALYSWGQGTQVTVSS,low polyreactivity
13,QVQLVQSGGGLFQAGGSLRLSCAASGRTFEPNAMGWYRQAPGKERQLVAAITNGGSTSYADSVKGRFTISRDNAKNSVYLQMNSLKPEDTAVYYFAGDLGRNLLHTYYYWGQGTQVTVSS,low polyreactivity
14,QVQLVQSGGGLVHAGGSLRLSCAASGRIFGINAMGWYIQAPGKERELVAAINWSGGSTYYADSVKGRFTISRDNAKNTVYLQMNSLKPEDTAVYYCADQKYQRVGYWGQGTQVTVSS,high polyreactivity
15,QVQLVQSGGGLVQAGGSLRLSCAASGLIFYPYAMGWYRQAPGKERELVAAITSGDSTYYADSVKGRFTISRDNAKNTVYLQMNSLKPEDTAVYYCNAYQWGGRYWLVTYDYWGQGTQVTVSS,low polyreactivity
16,QVQLVQSGGGLVQAGGSLRLSCAASGLTLRGNTMGWYRQAPGKEREMVADITASAGSTYYADSVKGRFTISRDNAKNTVYLQMNSLKPEDTAVYYCATVRYDVAAWAYSEYYYWGQGSQVTVSS,low polyreactivity
17,QVQLVQSGGGLVQAGGSLRLSCAASGRIFADNAMGWYRQAPGKERELVADITYSGGSTYYADSVKGRFTISRDNAKNTVYLQMNILKPEDTVVYYCAAGRSSLYFPGYYYWGQGTLVTVSS,low polyreactivity
18,QVQLVQSGGGLVQAGGSLRLSCAASGRIIGVNAMGWYRLAPGKERQLVADISSGRSTTYADSVKGRFTISRDNAKNTVYLQMNSLKPEDTALYYCNARFRFRYKFPSRHSWGQGSQVTVSS,high polyreactivity
19,QVQLVQSGGGLVQAGGSLRLSCAASGRTFGYYAMGWYRQAPGQERELVAAITRTGGSTHYADSVKGRFTISRDNAKNTVYVQMNSLKPVDTAVYYCARDYRYTIPYDYWGQGTQVTVSS,low polyreactivity
20,QVQLVQSGGGLVQAGGSLRLSCAASGRTFPIYAMGWYRQAPWKERELVAAITRGGRTNYADSVMGRFTISRDNAKNTVYLQMNSLKPEDTAVYYCDARTYGTYLYAEYDYWGQCTQVTVSS,high polyreactivity
21,QVQLVQSGGGLVQAGGSLRLSCAASGSIFGYYAMGWYRQAPGKERELVAVITSVATTNYADSVKGRFTISRDNAKNTVYLQMNSLKPEDTAVYYCAARPQVKRGRYGYWGQGTQVTVSS,low polyreactivity
22,QVQLVQSGGGLVQAGGSLRLSCAASGSTFWMNAMGWYRQAPGKEREFVAAITVRGGSTYYADSVKGRFTISRDNAKNTVYLQMNSLKPEDTAVYYCNRPSSLAWPWTGSFSRYDYWGQGTQVTVSS,low polyreactivity

row,Sequence,polyreactivity (PSR sort gate)
1,QVQLVQSGGGLVQAGGSLRLSCAASGYTIYLKAMGWNRQAPGKERELVAAITGSGDDTYYADSVKGRFTISRDNAKNTVYLQMKIMIPEDTAVYYCAARPYYTSSYKDYEYWGQGTQVTVSS,high polyreactivity
2,QVQLVQSGGGLVQAGGSLRLSCAASQNAMGWYRQAPGKERELVAAISKGGGRTYYADSVKGRFTISRDNAKNTVYLQMNSLKPEDTAVYYCNARYYSSQDADRHEYWGQGTQVTVSS,high polyreactivity
3,QVQLVQSVGGLVQAGGSLRLSSAASGSTFTVYAMGWYRQAPGKERELVAAISWRGGSTYYADSVKGRFTISRDNAKKTVYLQMNSLKPEDTAVYYCAADGLDIAPYGYGYWGQGTQVTVSS,low polyreactivity
4,QVQLVQSWRGLVQAGASLRLSCAASGRIFPGYAMGWYREAPGKERELDASSSRTGRTNYADSVKGRFTISRVNAKNTVYLQMNRLKPEYTAVYYCANASPWYFWGYDYWGQGSQVTVSS,low polyreactivity
5,QVQLVQTGGGLVQAGGSLRLSCAASGRIFLSYTRGWYSQAPGKERELVATIDSRVSTNYADSVKGRFTISRDNAKNTVYLQMNSLKPEDTAVYYCNADGFYSSHGYDYCGQGTQVTVSS,low polyreactivity
6,QVQLVQTGGGLVQAGGSLRLSCAASGRIFYRYDMGCYRQAPGKERSLVAAIRYSGGRTYYADSVKGRFTISRDNAKNTVYLQMNSLKPEDNAVYYCADDEFFWSSEEDYWGQVTQVTVSS,low polyreactivity
7,QVQLVVSGGGLVQAGGSLRLSCAASGFIFVNYAMGWYRQAPGKDGELVAAISRGGGRTYYADSVKGRFTISRDNAKNTVYLQMNSLKPEDTAVYYCNARRLGYHQRYFWGQGTQVTVSS,high polyreactivity
8,QVQLVVSGGGLVQAGGSLRLSCAASGFTFRYYAMGWYRQAPGKEREMVAAITRGAGSTYYADSVKGRFTITRDNAKNTVYLQMNSLKPEDTAVYYCAAEFFQYYVATPFDPYNYWGQGTQVTVSS,low polyreactivity
9,QVQLVVSGGGLVQAGGSLRLSCAASGIIFPFYVMGWYRQAPGKERELVAAITWSGDGTYYADSVKGRFTISRDNAKNTVYLQMNSLKPEDTAVYYCAAQWYYGGVKYYYWGQGTQVTVSS,low polyreactivity
10,QVQLVVSGGGLVQAGGSLRLSCAASGNIFESYGMGGYRQAPGKERELVANINTSCGSTYYADSVKGRFTISRDNAKNTVYLQMNSLKPEDTAVYYCAAEWYPYPWGYGYWGQGTQVTVSS,low polyreactivity
11,QVQLVVSGGGLVQAGGSLRLSCAASGSTFFKYVMGWYIQAPGKERELVAAITWRGGRTYYADSVKGRFTISRDNEKNTVYLQMNSLIPEDTAVYYCAAYDQSLYGRRYDYWGQGTQVTVSS,high polyreactivity
12,QVQLVVSGGGLVQAGGSLRLSCAASGSTIASNAMGWYRQAPGKERELVAGISSSDGGTYYADSVKGRFTISRDNAKNNVYLEMNSLKREDTAVYYCNAPPGTFQWQGHSDYWGQGTQVTVSS,low polyreactivity
13,QVQLVVSGGGLVQGGGSLRLSWAASGFILALNAMGWYIQAPGKEREFVADISWSGDSTYYADSVKGRFTISRDNAKNTFYLQMNSLKPEDTAVYYCAADPYYNWGYYYWGQGTQVTVSS,low polyreactivity
14,QVQLVVSGGGLVQPGGSLRLSCAASGRIFGLYAMGWYRQAPGKEREVVAAYADSVKGRFTISRDNAKNTVYLQMNSLKPEDTAVYYCAKGPLYAGYSIDLRDFNYWGQGTQVTVSS,low polyreactivity
15,QVQMQESGGGLVQAGGTLRLSCAASGSFSADEDMGWYRQAQGKEREFVAGISVGGNTNYADSVKGRFTISRENAKNTVYLQINSLKPEDTAVYYCAVLQDVYDALDYWAQGTQVTVSS,high polyreactivity
16,QVQPVESAGGLVQAGGSLRLSCSASGFIFKYYAMGWYRQAPGKERELVAAISYSGTRTYYADSVKGRFTISRDNAKNTVYLQMNSLKPEDTAVYYCNARDWSFVGTYDYWGQGTQVTVSS,high polyreactivity
17,QVQPVESGGGLVHAGGSLRLSCAASGSIFWYNAMGWYRQAPGQEWELVAAINWSGGSTFYADSVKGRFTISRDNEKNTVYLQMNSLNPEDTAVYYCAADDWSTGYDFWGQGTQETVSS,high polyreactivity
18,QVQQHESGDGLVQAVGSLRLTCAASGYISGNYYMGWYRQATGKERELVAGIDAFGSSTNYADCVKGRFTISRDNAKNTVYLQMNSLKPEDTAVYYCAARPDGDRLFYYWGQGTQVTVSS,low polyreactivity
19,QVQQQESAGGLVQAGGSLRLSCAASGNIFVDAYMGWYRQAPGKERELVATFAPADSVKGRFTISRDNAKNTVYLQMYSLKPEDTAVYYCAAFTGYSSVFGYWGQGIQVTVSS,high polyreactivity
20,QVQQQESGGGLVQAGGSLRLSCAASGTIFQLTVMGRYRQAPGKERELVASIDYGGNTNYADSVKGRFTISRDNAKNSVYLQKNSMKPEDTEVYYCEASYESWTTHPYWGQGTQVTVSS,low polyreactivity
21,QVQQQESGGGLVQAGGSLRLSCAASGYISVVIGMGWYRQSPGKERELVASIAYGAITYYTDSVKGRFTISRDYAKNTEYLQMNSLKAEDTAVYYCAADKPPLAYHWYWGQGTQATVSS,high polyreactivity
